In doi:10.1101/2024.09.13.612963 (bioRxiv, 2024):

Target: T1, TRAK1-mScarlet (wild type, truncated before the mitochondrial binding domain) (human, UniProt Q9UPV9 1-702)
T1 sequence (looked up): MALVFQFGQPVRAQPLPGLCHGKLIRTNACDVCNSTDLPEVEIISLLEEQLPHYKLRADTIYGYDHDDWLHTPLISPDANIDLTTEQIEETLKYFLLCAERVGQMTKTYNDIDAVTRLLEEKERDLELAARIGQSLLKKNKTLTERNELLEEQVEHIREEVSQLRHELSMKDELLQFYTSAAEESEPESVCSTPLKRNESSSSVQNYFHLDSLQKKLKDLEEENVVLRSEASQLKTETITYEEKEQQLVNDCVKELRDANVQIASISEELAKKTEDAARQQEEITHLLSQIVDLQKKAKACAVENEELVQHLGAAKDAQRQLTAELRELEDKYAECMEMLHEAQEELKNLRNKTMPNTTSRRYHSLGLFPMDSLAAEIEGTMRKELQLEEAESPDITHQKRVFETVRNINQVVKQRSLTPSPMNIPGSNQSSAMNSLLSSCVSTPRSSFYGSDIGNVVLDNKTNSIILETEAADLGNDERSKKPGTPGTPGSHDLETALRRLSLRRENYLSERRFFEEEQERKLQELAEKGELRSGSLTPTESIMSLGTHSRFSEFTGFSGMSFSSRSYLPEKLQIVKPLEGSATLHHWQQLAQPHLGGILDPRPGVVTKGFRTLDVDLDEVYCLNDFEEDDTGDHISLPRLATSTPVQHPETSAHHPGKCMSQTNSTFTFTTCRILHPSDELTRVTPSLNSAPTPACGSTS
Assay: co-IP

fold enrichment against TRAK2-driven synthetic cargo: ~20 fold
B1: kinesin-1 (KIF5B) (natural protein, human (endogenous in hTERT RPE-1), UniProt P33176 1-963, looked up)
chain: MADLAECNIKVMCRFRPLNESEVNRGDKYIAKFQGEDTVVIASKPYAFDRVFQSSTSQEQVYNDCAKKIVKDVLEGYNGTIFAYGQTSSGKTHTMEGKLHDPEGMGIIPRIVQDIFNYIYSMDENLEFHIKVSYFEIYLDKIRDLLDVSKTNLSVHEDKNRVPYVKGCTERFVCSPDEVMDTIDEGKSNRHVAVTNMNEHSSRSHSIFLINVKQENTQTEQKLSGKLYLVDLAGSEKVSKTGAEGAVLDEAKNINKSLSALGNVISALAEGSTYVPYRDSKMTRILQDSLGGNCRTTIVICCSPSSYNESETKSTLLFGQRAKTIKNTVCVNVELTAEQWKKKYEKEKEKNKILRNTIQWLENELNRWRNGETVPIDEQFDKEKANLEAFTVDKDITLTNDKPATAIGVIGNFTDAERRKCEEEIAKLYKQLDDKDEEINQQSQLVEKLKTQMLDQEELLASTRRDQDNMQAELNRLQAENDASKEEVKEVLQALEELAVNYDQKSQEVEDKTKEYELLSDELNQKSATLASIDAELQKLKEMTNHQKKRAAEMMASLLKDLAEIGIAVGNNDVKQPEGTGMIDEEFTVARLYISKMKSEVKTMVKRCKQLESTQTESNKKMEENEKELAACQLRISQHEAKIKSLTEYLQNVEQKKRQLEESVDALSEELVQLRAQEKVHEMEKEHLNKVQTANEVKQAVEQQIQSHRETHQKQISSLRDEVEAKAKLITDLQDQNQKMMLEQERLRVEHEKLKATDQEKSRKLHELTVMQDRREQARQDLKGLEETVAKELQTLHNLRKLFVQDLATRVKKSAEIDSDDTGGSAAQKQKISFLENNLEQLTKVHKQLVRDNADLRCELPKLEKRLRATAERVKALESALKEAKENASRDRKRYQQEVDRIKEAVRSKNMARRGHSAQIAKPIRPGQHPAASPTHPSAIRGGGAFVQNSQPVAVRGGGGKQV
